Measured values as given in the nanobody polyreactivity screen of Harvey et al. (2022).

assay: yeast display, Sf9 membrane polyspecificity reagent, FACS + sequencing; frameworks hold sequencing errors
Summary of the method: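 Galactose induction of a Saccharomyces cerevisiae BJ5465 synthetic nanobody display library ran 36–48 hours. The cells were then stained for 1 hour at 4 °C with 10% biotinylated, detergent-solubilized Sf9 membrane reagent, pulled down on streptavidin microbeads and FACS-sorted into low and high (top ~1%) gates on expression and reagent-binding fluorescence. Labels for polyreactivity follow the gate of origin.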

Sequence | polyreactivity (PSR sort gate)
QVQLVESGGGLVQAGGSLRLSCAASGLIFPSYAMGWYRQAPGKERELVAAITFSGSDTNYADSVKGRFTISRDNAKNTVYLQMNSLKPEDTAVYYCAAAYFDFWGWLHDYWGQGTQVTVSS | low polyreactivity
QVQLVESGGGLVQAGGSLRLSCAASGLIFPVYDMAWYRQAPGKERELVAAITRSGDSTYYADSVKGRFTISRDNAKNTVYLQMNSLKPEDSGVYYCAAQPGTASYAGDGDSWGKGTQVTVSS | low polyreactivity
QVQLVESGGGLVQAGGSLRLSCAASGLIFPYNAMGWYRQAPGKERELVAAIDSGVTTYYADSVKGRFTISRDNAKNTVYLQMNSLKPEDTAVYFCAADGLPGPEGDSWGQGTQVSVSS | low polyreactivity
QVQLVESGGGLVQAGGSLRLSCAASGLIFPYYVKVWYRQAPGKERELVAAISWNGSSTYYADSVKGRFTISRDNAKNTVYLQMNSLKPEDTAVYYCAASYGYFEDYGYWGQGTQVTVSS | low polyreactivity
QVQLVESGGGLVQAGGSLRLSCAASGLIFQEYAMGWYRQAPGKERELVAAITSGDSTNYADSVKGRFTISRDNAKNTVYLQMNSLKPEDTAVYYCNVDEAYYFVGEDNYDYWGQGTQVTVSS | low polyreactivity
QVQLVESGGGLVQAGGSLRLSCAASGLIFQVYDMGWYRQAPGKERELVAAISSGSNTNYADSVKGRFTISRDNAKNTVYLQMNSLKPEDTAVYYCAAGLYLQGPFDYWGQGTQVTVSS | low polyreactivity
QVQLVESGGGLVQAGGSLRLSCAASGLIFQVYDMGWYRQAPGKERELVAAISSGSNTNYADSVKGRFTISRDNAKNTVYLQMNSRKPEDTAVYYCAASWGYGALTPDMGYWGQGTQVTVSS | low polyreactivity
QVQLVESGGGLVQAGGSLRLSCAASGLIFRGNAMGWYRQAPGKERELVAGITRGGSTYYADSVKGRFTISRDNAKNTVYLQMNSLKPEDTAVYYCAAAFRDGFTRRYGYWGQGTQVTVSS | high polyreactivity
QVQLVESGGGLVQAGGSLRLSCAASGLIFRGYAMGWYRQAPGKERELVAAISTTGGSTFYADSVKGRFTISRDNAKNTVYLQMNSLKREDTAVYYCNADWAPTGFSGGYPYDYWGQGTQVTVSS | high polyreactivity
QVQLVESGGGLVQAGGSLRLSCAASGLIFRGYAMGWYRQAPGKERELVAVISSSGGITRYADSVKGRFTISRDNAKNTVYLQMNSLKPEDTAVSYCATDRAERTGYTRYVKTYNYWGQGTQVTVSS | low polyreactivity
QVQLVESGGGLVQAGGSLRLSCAASGLIFRGYTMGWYRQAPGKEREFVAAITRRGTSTYYADSVKGRFTISRDNAKNTVYLQMNSLKPEDTAVYYCAARSVSGPRGYPYDYWGQGTQVTVSS | high polyreactivity
QVQLVESGGGLVQAGGSLRLSCAASGLIFRPYAMGWYRQAPGKERELVAALTSGGSTDYADSVKGRFTISRDNAKNTVYLQMNSLKPEDTAVYYCNADIYPHDGYPWQGDYDYWGQGTQVTVSS | low polyreactivity
QVQLVESGGGLVQAGGSLRLSCAASGLIFRRYAMGWYRQAPGKERELVAAISRTGGTTYYADSVKGRFTISRDTAKNTVYLQMNSLKPEDTAVYYCAAAGQGPDYDYWGQGTQVSVSS | high polyreactivity
QVQLVESGGGLVQAGGSLRLSCAASGLIFRRYVMGWYRQAPGKERELVAAITSRGTRTYYADSVKGRFTISRDNAKNTVYLQMNSLKPEDTAVYYCAADGGISAGANSGYDYWGQGTQVTVSS | high polyreactivity
QVQLVESGGGLVQAGGSLRLSCAASGLIFRVYAMGWYRQAPGKERELVAAITWSDGSTYYADSVKGRFTISRDNAKNTVYLQMNSLKPEDTAVYYCAAEFWYDWDYDYYYWGQGTQVTVSS | high polyreactivity
QVQLVESGGGLVQAGGSLRLSCAASGLIFRYNAMGWYRQAPGKERELVAAISRSGGTTYYADSVKGRFTISRDNAKNTVYLQMNSLKPEDTAVYYCATRISQSYYNYGYWGQGTQVTVSS | high polyreactivity
QVQLVESGGGLVQAGGSLRLSCAASGLIFRYNAMGWYRQAPGKERELVASITSDGSTNYADSVKGRFTISRDNAKNTVYLQMNSLKPEDTAVYYCAADGYTYCYYQLIPDYDYWGQGTQVTVSS | low polyreactivity
QVQLVESGGGLVQAGGSLRLSCAASGLIFRYYAKGWYRQGPGNEMELVAVISRRGDSTYYADSVKVRFTISRDNAKNTVYLQMISLKPEDTAVFYCAAEYFKRYKSYEYWGQGTQVTVSS | high polyreactivity
QVQLVESGGGLVQAGGSLRLSCAASGLIFRYYAMGWYRQAPGKERELVASISGSGGSTYYADSVKGRFTISRDNAKNTVYLQMNSLKPEDTAVYYCAATLAVYRRGPRYNYWGQGTQVTVSS | high polyreactivity
QVQLVESGGGLVQAGGSLRLSCAASGLIFRYYVMGWYRQAPGKERDFVASISYSGGRTYYADSVKGRFTISRDYAKNTVYLQMNRLKPEDTAVYYCAGGYYYHRYSYPGDYWGQGTQVTVSS | high polyreactivity
QVQLVESGGGLVQAGGSLRLSCAASGLIFSCNAMGWYRQAPGKERELVASISYSGGRTYYADSVKGRFTISRDNAKNTVYLQMNSLKPEDTAVYYCAADTNATTDPEMDYWGQGTQVTVSS | low polyreactivity
QVQLVESGGGLVQAGGSLRLSCAASGLIFSGYAMGWYRQAPGKDRELVAALTRRGSRTYYADSVKGRFTISRDNAKNTVYLQMNSLKPEDTAVYYCAADRFQGRDDYWGQGTQVTVSS | high polyreactivity

Sequence | polyreactivity (PSR sort gate)
QVQLVESGGGLVQAGGSLRLSCAASGLIFSQNAMGWYRQAPGKERELVARITLSGTSTYYADSVKGRFTISRDNAKNTVYLQMISLKPEDTAVYYCNTRSYSYYVPYRYDYWGQGTQVTVSS | high polyreactivity
QVQLVESGGGLVQAGGSLRLSCAASGLIFSSYAMGWYRQAPGQERELVAAITGSGGRTYYADSVKGRFTISRDNAKNTVYLQMNSLKPEDTAVYYWNRRSRRQGGYWGQGTHVTVSS | high polyreactivity
QVQLVESGGGLVQAGGSLRLSCAASGLIFSWYAMGWYRQAPGKERELVAAITGSGGRTYYADSVKGRFTISRDNAKNTVYLQMNSLKPEDTAVYYCAALYTARYDYWGQGTQVTVSS | high polyreactivity
QVQLVESGGGLVQAGGSLRLSCAASGLIFSYYAMGWYIQAPGKERVLVAAISGVGSTNYADSVKGRFTISRDNEKNTVYLQMNSLKPEDTAVYYCAARFVLRRDYGYWGQGTQVTVSS | high polyreactivity
QVQLVESGGGLVQAGGSLRLSCAASGLIFSYYAMGWYRQAPGKERELVAAISRGGSTNYADSVKGRFTISRDNAKNTVNLQMNSLKPEDTAVYYFAAGRFAYHDDYWGQGTQVTVSS | high polyreactivity
QVQLVESGGGLVQAGGSLRLSCAASGLIFSYYAMGWYRQAPGKERELVAGITRSGASTYADSVKGRFTISRDNAKNTVYLQMNSLKPEDTAVYYCAADWHYLGWFWQYSKYDYWGQGTQVTVSS | high polyreactivity
QVQLVESGGGLVQAGGSLRLSCAASGLIFTAYAMGWYRPAPGKERELVAAITGSGGRTYYADSVKGRFTISRDNALNSVYLQMNSLKAEDTAVYYCAADFPARGSSTYDYWGQGTQVTVSS | high polyreactivity
QVQLVESGGGLVQAGGSLRLSCAASGLIFTNYAMGWYRQAPGKERELVAGISTRGTSTYYADSVKGRFTISRDNAKNTVYLQMNSLKPEDTAVYYCAAVHRVVRAYDYWGQGTQVTVSS | high polyreactivity
QVQLVESGGGLVQAGGSLRLSCAASGLIFTSYAMGWYRQAPGKERELVAAISRGVRTYYADSVKGRFTISRDNAKNTVYLQMNSLKPEDTAVYYCAAAKPPPGKYDYWGQGTQVTVSS | high polyreactivity
QVQLVESGGGLVQAGGSLRLSCAASGLIFTVNAMGWYRQAPGKERELVAAISQSGGSTYYADSVKGRFTISRDNAKNTVYLQMNSLKPEDTAVYYCARGSWRHFRLYGFDYWGQGTQLTVSS | low polyreactivity
QVQLVESGGGLVQAGGSLRLSCAASGLIFTWNAMGWYRQAPGKERELVAAISTGGSTSYADSVKGRFTISRDNAKNTVYLQMNSLKPEDTAVYYCARDSSIWSHGSWYDYWGQGTQVTVSS | low polyreactivity
QVQLVESGGGLVQAGGSLRLSCAASGLIFTYYAMGWYRQAPGKERELVAGISSGTNTNYADSVKGRFTISRDNAKNTVYLQMNSLKPEDTALYYCATTRGYQFVAYGYWGQGTQVTVSS | low polyreactivity
QVQLVESGGGLVQAGGSLRLSCAASGLIFTYYAMGWYRQAPGKERELVAGISSGTNTNYADSVKGRFTISRDNAKNTVYLQMNSLKPEDTAVYYCAKTRGYQFVAYGYWGQGTQVTVSS | low polyreactivity
QVQLVESGGGLVQAGGSLRLSCAASGLIFTYYTMGWYRQEPGTERELVATINWNTSSTYYADSVKGRFTISRDNAKNTVYLQMNSLKPEDTAVYYCNKRIAESDTTVTYDYWGQGTQVTVSS | low polyreactivity
QVQLVESGGGLVQAGGSLRLSCAASGLIFVANAMGWYRQAPGKERELVAAISRSGGITTYADSVKGRFTISRDNAKNTVYLQMNSLKPEDTAVYYCAADTDPNPLIDYTLPMDYWGQGTQVTVSS | low polyreactivity
QVQLVESGGGLVQAGGSLRLSCAASGLIFVNNPMGWYRQAPGKERELVAAISWSTGGSTYYADSVKGRFTISRDNAKNSVYLQMNSLKPEDTAVYYCAAQYSYGEYWGYDYWGQGTQVTVSS | low polyreactivity
QVQLVESGGGLVQAGGSLRLSCAASGLIFVPYAMGWYRQAPGKERELVAAINSGATTYYADSVKGRFTISRDNAKNTVYLQMNSLKPEDTAVYYCNAEYPVYVYWFDYWGQGTQVTVSS | high polyreactivity
QVQLVESGGGLVQAGGSLRLSCAASGLIFVQNAMGWYRQAPGKEREFVAAISAGGTRTYYADSVKGRFTISRDNAKNTVYLQMNSVKPEDTAVYYCAAASGYDYWGQGTQGTVSS | high polyreactivity
QVQLVESGGGLVQAGGSLRLSCAASGLIFVQNAMGWYRQAPGKERELVAAISSRGTNTYYADSVKGRFTISRDNAKNTVYLQMNSLKPEDTAVYYCAKPLKTPRPNYDYWGQGTQVTVSS | low polyreactivity
QVQLVESGGGLVQAGGSLRLSCAASGLIFVSYAMGWYRQAPGKERELVAAISSGGSTYYADSVKGRFTISRDNAKNTVSLQMTSLKPEDTAVYYCNADGFYSWLYDYWGQGTQVTVSS | low polyreactivity
QVQLVESGGGLVQAGGSLRLSCAASGLIFWEYAMGWYRPAPGNERELVASITWGGGGTYYADSVKGRFTISRYNAKNTVNLHKNSLKPEDTAVYYSAVGPYYQSTQIYDYWGQGTQVTVSS | low polyreactivity
